# Measurements: patent US20130216530A1, “Methods for optimizing biological response modifier therapy using therapeutic drug monitoring of immunosuppressants” (Exagen Diagnostics, Inc., priority 2012, published 2013)
# How the values were obtained:
# Format in all cases: in vivo, human
# [1] = Circulating trough infliximab levels in serum of RA patients on MTX plus infliximab (K562 NFKB-luciferase cell based assay)
# Protocol: (§1) Adult RA patients receiving weekly MTX with infliximab for more than three months were enrolled in a cross sectional study. Blood was collected at trough before the infusion of infliximab. Red blood cell (RBC) MTXPGs were measured using liquid chromatography while circulating levels of infliximab were measured using a cell based assay. ATIs were measured using enzyme immunoassays. Statistical analysis consisted of regression analyses and Wilcoxon tests.
# (§2) The study was cross sectional study in adult RA patients at three study sites (Brigham and Women's, Boston, Mass.; The Center for Rheumatology, Albany, N.Y.; and Altoona Center for Clinical Research, Altoona Pa.). All RA patients (according to the 2010 ACR criteria for RA)^8 enrolled had received a stable dose of MTX (for at least 4 months) in combination with infliximab for at least 3 months. Clinical parameters and demographic data were collected at the time of a single study visit. The study was approved by an independent ethic committee and informed consent was collected from all patients. Blood was drawn in EDTA containing tube and one SST tube at the time of the study visit. The blood was drawn just prior to the infliximab infusion (trough) and shipped overnight using refrigerated transportation kits. Disease activity was estimated using the clinical disease activity index (CDAI). […] RBC MTXPG3 were measured using a liquid chromatography developed and validated in our laboratory^9. Quantification limit was 5 nmol/L RBCs. Circulating levels of infliximab in serum were measured by Biomonitor (Copenhagen, DK) using a cell based assay consisting of erythroleukemic K562 cells transfected with a NFKB regulated firefly luciferase reporter-gene construct^10. Antibodies to infliximab (ATIs) were measured using a proprietary enzyme immunoassay technique (Biomonitor, Copenhagen, Denmark). The cutoff for positive ATI was 0.9 U/L. Anti-citrullinated peptide auto-antibodies levels (Anti-MCV) were measured using ELISA (Orgentec Diagnostika, Mainz, Germany). […]
# [2] = Antibodies to infliximab (ATIs) in RA patients by enzyme immunoassay, cutoff 0.9 U/L
# Protocol: as §1
# The study was cross sectional study in adult RA patients at three study sites (Brigham and Women's, Boston, Mass.; The Center for Rheumatology, Albany, N.Y.; and Altoona Center for Clinical Research, Altoona Pa.). All RA patients (according to the 2010 ACR criteria for RA)^8 enrolled had received a stable dose of MTX (for at least 4 months) in combination with infliximab for at least 3 months. Clinical parameters and demographic data were collected at the time of a single study visit. The study was approved by an independent ethic committee and informed consent was collected from all patients. Blood was drawn in EDTA containing tube and one SST tube at the time of the study visit. The blood was drawn just prior to the infliximab infusion (trough) and shipped overnight using refrigerated transportation kits. Disease activity was estimated using the clinical disease activity index (CDAI). Upon receipt of blood specimen, erythrocytes and serum were isolated and stored frozen at −80° C. RBC MTXPG3 were measured using a liquid chromatography developed and validated in our laboratory^9. Quantification limit was 5 nmol/L RBCs. Circulating levels of infliximab in serum were measured by Biomonitor (Copenhagen, DK) using a cell based assay consisting of erythroleukemic K562 cells transfected with a NFKB regulated firefly luciferase reporter-gene construct^10. Antibodies to infliximab (ATIs) were measured using a proprietary enzyme immunoassay technique (Biomonitor, Copenhagen, Denmark). The cutoff for positive ATI was 0.9 U/L. Anti-citrullinated peptide auto-antibodies levels (Anti-MCV) were measured using ELISA (Orgentec Diagnostika, Mainz, Germany). Statistical analysis consists of multivariate logistic/linear regression and Wilcoxon tests as appropriate.
# [3] = RBC MTXPG3 levels in RA patients measured by liquid chromatography
# Protocol: as §1, §2
"median RBC MTXPG3, patients without ATI ([3]; ATI negative patients)","median RBC MTXPG3, patients having ATIs ([3]; ATI positive patients)","median RBC MTXPG3 levels ([3]; all 61 RA patients on weekly MTX, red blood cells)",Compound,"median infliximab levels, patients without ATI ([1]; ATI negative patients, trough)","median infliximab levels, patients with ATIs ([1]; ATI positive patients, trough)","median trough infliximab levels ([1]; all 61 RA patients, MTX with infliximab, serum at trough before infusion)","patients with ATIs detected ([2]; 11 of 61 patients, ATI>0.9 U/L)",patients testing positive for ATI ([2]; 12 patients with RBC MTXPG3 above 50 nmol/L),"fold lower likelihood of having ATI (odds ratio) ([2]; RBC MTXPG3 levels above 25 nmol/L, logistic regression, CI95%: 1.1-20.8)",number of patients with ATI ([2]; of 4 patients with MTXPG3<5 nmol/L),patients presenting with ATI ([2]; patients with RBC MTXPG3 below 5 nmol/L (3 out of 4))
,,,infliximab,5.0 µg/mL,< 0.5 µg/mL,3.3 µg/mL,18%,None and none,4.7 fold,3,75%
30 nmol/L,22 nmol/L,28 nmol/L,CN(Cc1cnc2nc(N)nc(N)c2n1)c1ccc(C(=O)N[C@@H](CCC(=O)N[C@@H](CCC(=O)N[C@@H](CCC(=O)O)C(=O)O)C(=O)O)C(=O)O)cc1 [MTXPG3],,,,,,,,
